For 17 molecules, Kd results are on record in patent US20030068675, “Position dependent recognition of GNN nucleotide triplets by zinc fingers” (published 2003).

Holding throughout (experiment): EMSA
Common to all, as to details: tags: MBP fusion
For orientation: A gel shift assay detects complexes by their altered migration in electrophoresis.

For series [1], the target named is ZFP SBS#1236 (synthetic). A digest of the protocol:
(§1)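 Purified ZFP was titrated against labeled double-stranded target (1 nM or lower, at least 10-fold below expected Kd) carrying the natural binding site with flanks. Binding buffer was 10 mM Tris pH 7.5, 100 mM KCl, 1 mM MgCl2, 0.1 mM ZnCl2, 5 mM DTT, 10% glycerol, 0.02% BSA, with equilibration for at least 45 min. Bound and free target were separated on a 10% polyacrylamide gel.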

Series [2] deals with ZFP SBS#1234 (synthetic). An outline of the steps:
as §1

The target in series [3] is T1, ZFP SBS#1278 (synthetic).
T1 chain: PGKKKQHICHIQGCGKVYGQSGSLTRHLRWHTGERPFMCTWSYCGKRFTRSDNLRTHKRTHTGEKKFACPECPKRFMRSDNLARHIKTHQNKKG
A digest of the protocol: as §1

Series [4] addresses T2, ZFP SBS#504 (synthetic).
T2 chain: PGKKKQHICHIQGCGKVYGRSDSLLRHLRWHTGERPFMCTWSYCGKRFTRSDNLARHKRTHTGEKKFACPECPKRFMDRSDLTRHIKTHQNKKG
A digest of the protocol:
as §1

In series [5] the target is T3, ZFP SBS#503 (synthetic).
T3 chain: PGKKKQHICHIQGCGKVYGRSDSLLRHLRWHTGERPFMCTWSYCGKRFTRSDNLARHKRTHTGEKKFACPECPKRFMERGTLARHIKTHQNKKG
An outline of the steps:
as §1

The target of series [6] is T4, ZFP SBS#440 (synthetic).
T4 chain: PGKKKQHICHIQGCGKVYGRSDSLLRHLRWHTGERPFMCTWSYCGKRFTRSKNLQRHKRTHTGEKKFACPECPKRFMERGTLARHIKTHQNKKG
An outline of the steps: as §1

Series [7] has as its target T5, ZFP SBS#505 (synthetic).
T5 chain: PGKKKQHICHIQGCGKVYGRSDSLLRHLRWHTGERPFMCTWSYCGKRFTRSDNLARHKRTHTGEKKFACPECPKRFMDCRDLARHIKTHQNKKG
A digest of the protocol:
as §1

Series [8] addresses ZFP SBS#1289 (synthetic). An outline of the steps: as §1
Series [9] concerns the target ZFP SBS#1267 (synthetic). An outline of the steps: as §1
In series [10] the target is T6, ZFP SBS#1292 (synthetic).
T6 chain: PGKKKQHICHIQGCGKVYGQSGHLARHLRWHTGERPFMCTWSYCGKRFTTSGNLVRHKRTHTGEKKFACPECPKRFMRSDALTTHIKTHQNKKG
A digest of the protocol:
as §1

The target in series [11] is ZFP SBS#1270 (synthetic). A digest of the protocol: as §1
In series [12] the target is T7, ZFP SBS#1293 (synthetic).
T7 chain: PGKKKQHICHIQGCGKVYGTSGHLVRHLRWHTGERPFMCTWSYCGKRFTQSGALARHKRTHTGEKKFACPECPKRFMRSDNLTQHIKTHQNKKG
An outline of the steps:
as §1

Series [13] deals with ZFP SBS#1294 (synthetic). A digest of the protocol: as §1
In series [14] the target is T8, ZFP SBS#541 (synthetic, UniProt P08047).
T8 chain: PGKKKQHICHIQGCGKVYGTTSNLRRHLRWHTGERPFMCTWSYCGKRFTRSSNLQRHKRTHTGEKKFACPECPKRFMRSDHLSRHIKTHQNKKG
A digest of the protocol: as §1

Series [15] concerns the target T9, ZFP SBS#1258 (synthetic, UniProt P08047).
T9 chain: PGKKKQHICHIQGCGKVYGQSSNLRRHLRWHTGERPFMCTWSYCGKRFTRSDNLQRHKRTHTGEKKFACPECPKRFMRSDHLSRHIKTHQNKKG
A digest of the protocol: as §1

The target in series [16] is T10, ZFP SBS#1257 (synthetic, UniProt P08047).
T10 chain: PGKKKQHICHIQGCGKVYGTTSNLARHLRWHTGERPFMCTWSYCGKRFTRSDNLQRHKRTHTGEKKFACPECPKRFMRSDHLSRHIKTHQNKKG
An outline of the steps:
as §1

Series [17] concerns the target T11, ZFP SBS#1241 (synthetic).
T11 chain: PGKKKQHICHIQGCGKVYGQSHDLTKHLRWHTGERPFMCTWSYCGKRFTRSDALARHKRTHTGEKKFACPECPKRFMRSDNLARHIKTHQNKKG
An outline of the steps: as §1

The target in series [18] is ZFP SBS#1279 (synthetic). An outline of the steps:
as §1

The target in series [19] is T12, ZFP SBS#1269 (synthetic).
T12 chain: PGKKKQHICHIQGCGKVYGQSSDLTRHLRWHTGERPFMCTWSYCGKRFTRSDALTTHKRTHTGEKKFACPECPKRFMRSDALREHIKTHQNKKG
An outline of the steps:
as §1

Series [20] addresses T13, ZFP SBS#1268 (synthetic).
T13 chain: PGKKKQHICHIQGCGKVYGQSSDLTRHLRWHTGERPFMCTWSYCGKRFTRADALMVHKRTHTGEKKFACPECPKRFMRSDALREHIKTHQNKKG
An outline of the steps:
as §1

Series [21] addresses T14, ZFP SBS#1266 (synthetic).
T14 chain: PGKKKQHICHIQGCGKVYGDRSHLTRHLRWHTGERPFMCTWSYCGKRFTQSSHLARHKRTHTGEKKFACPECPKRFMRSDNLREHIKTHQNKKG
A digest of the protocol:
as §1

Series [22] addresses T15, ZFP SBS#1288 (synthetic).
T15 chain: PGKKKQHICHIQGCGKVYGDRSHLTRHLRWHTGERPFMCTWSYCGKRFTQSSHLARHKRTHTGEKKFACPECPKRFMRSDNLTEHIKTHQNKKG
A digest of the protocol:
as §1

Series [23] concerns the target T16, ZFP SBS#1282 (synthetic).
T16 chain: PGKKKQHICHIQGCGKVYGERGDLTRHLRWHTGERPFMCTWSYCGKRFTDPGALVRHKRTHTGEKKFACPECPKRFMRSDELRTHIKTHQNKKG
An outline of the steps: as §1

Series [24] deals with ZFP SBS#1291 (synthetic). A digest of the protocol:
as §1

Series [25] has as its target ZFP SBS#1290 (synthetic). A digest of the protocol: as §1
Series [26] has as its target T17, ZFP SBS#1287 (synthetic).
T17 chain: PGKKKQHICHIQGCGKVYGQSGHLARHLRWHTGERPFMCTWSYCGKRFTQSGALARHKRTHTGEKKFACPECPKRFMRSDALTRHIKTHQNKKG
A digest of the protocol:
as §1

The target of series [27] is T18, ZFP SBS#1259 (synthetic).
T18 chain: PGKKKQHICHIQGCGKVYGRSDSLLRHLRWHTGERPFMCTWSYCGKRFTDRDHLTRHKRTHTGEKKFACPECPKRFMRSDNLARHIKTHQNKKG
An outline of the steps: as §1

Series [28] addresses T19, ZFP SBS#1260 (synthetic).
T19 chain: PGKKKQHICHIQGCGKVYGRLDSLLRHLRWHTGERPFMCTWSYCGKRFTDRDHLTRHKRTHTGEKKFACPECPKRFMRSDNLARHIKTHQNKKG
A digest of the protocol: as §1

Series [29] deals with ZFP SBS#1275 (synthetic). A digest of the protocol:
as §1

The target in series [30] is ZFP SBS#1274 (synthetic). A digest of the protocol:
as §1

Series [31] has as its target T20, ZFP SBS#1265 (synthetic).
T20 chain: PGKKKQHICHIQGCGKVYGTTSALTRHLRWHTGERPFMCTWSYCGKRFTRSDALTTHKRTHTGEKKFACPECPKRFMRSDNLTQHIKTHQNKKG
A digest of the protocol:
as §1

Series [32] concerns the target T21, ZFP SBS#1264 (synthetic).
T21 chain: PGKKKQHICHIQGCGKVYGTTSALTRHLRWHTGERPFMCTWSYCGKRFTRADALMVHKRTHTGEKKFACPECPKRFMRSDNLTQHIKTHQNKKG
An outline of the steps: as §1

Series [33] concerns the target T22, ZFP SBS#1271 (synthetic).
T22 chain: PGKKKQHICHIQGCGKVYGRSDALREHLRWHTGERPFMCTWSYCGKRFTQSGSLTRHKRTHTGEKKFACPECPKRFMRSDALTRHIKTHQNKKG
A digest of the protocol: as §1

The target of series [34] is T23, ZFP SBS#1277 (synthetic).
T23 chain: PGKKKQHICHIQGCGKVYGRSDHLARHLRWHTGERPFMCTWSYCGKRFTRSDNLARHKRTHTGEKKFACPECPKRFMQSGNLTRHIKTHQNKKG
A digest of the protocol:
as §1

ZFP SBS#1291 (synthetic), sequence (chain, as listed by the source): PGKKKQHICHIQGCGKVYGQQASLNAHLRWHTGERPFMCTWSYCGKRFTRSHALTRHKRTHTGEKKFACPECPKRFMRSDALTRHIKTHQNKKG
ZFP SBS#1267 (synthetic), sequence (chain, as listed by the source): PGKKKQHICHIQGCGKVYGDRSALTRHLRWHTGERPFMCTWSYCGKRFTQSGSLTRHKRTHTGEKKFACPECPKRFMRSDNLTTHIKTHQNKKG
ZFP SBS#1294 (synthetic), sequence (chain, as listed by the source): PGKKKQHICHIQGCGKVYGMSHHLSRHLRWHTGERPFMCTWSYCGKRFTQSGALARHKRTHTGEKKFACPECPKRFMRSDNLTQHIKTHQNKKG
ZFP SBS#1275 (synthetic), sequence (chain, as listed by the source): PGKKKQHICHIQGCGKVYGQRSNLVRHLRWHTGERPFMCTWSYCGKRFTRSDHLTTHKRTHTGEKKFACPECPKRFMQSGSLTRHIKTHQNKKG
ZFP SBS#1236 (synthetic), sequence (chain, as listed by the source): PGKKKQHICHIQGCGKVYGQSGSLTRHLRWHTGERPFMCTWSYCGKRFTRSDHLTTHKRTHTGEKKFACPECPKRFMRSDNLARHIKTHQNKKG
ZFP SBS#1274 (synthetic), sequence (chain, as listed by the source): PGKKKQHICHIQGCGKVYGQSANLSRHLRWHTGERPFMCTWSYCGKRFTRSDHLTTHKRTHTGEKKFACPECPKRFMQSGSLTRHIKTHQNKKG
ZFP SBS#1290 (synthetic), sequence (chain, as listed by the source): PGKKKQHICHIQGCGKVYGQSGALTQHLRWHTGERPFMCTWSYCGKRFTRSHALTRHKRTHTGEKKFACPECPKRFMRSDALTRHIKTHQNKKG
ZFP SBS#1234 (synthetic), sequence (chain, as listed by the source): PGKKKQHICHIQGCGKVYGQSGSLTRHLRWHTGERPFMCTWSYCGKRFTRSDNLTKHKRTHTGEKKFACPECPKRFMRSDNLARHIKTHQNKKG
ZFP SBS#1289 (synthetic), sequence (chain, as listed by the source): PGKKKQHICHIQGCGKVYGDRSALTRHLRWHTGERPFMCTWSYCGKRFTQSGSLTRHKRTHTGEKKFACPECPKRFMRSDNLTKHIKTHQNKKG
ZFP SBS#1270 (synthetic), sequence (chain, as listed by the source): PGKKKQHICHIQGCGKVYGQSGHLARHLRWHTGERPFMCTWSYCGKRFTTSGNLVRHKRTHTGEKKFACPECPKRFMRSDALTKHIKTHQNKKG

B1: GAGTAGGCA (dsDNA)
DNA 1: GAGTAGGCA
DNA 2: TGCCTACTC
The term Kd denotes the constant that tells how readily two partners part at equilibrium. Lower therefore signals tighter binding. For B1, the Kd in [1] was 0.065 nM; in [2], 0.101 nM; in series [3], 0.019 nM.

B2: GCCGAGGTGC (dsDNA)
DNA 1: GCCGAGGTGC
DNA 2: GCACCTCGGC
For the molecule B2, the dissociation constant (Kd) stood at 25 nM in series [4], 50 nM in [5], 40 nM in [6] and 65 nM in series [7].

B3: TAGGCAGTC (dsDNA)
DNA 1: TAGGCAGTC
DNA 2: GACTGCCTA
On to B3, for which the Kd is 1.37 nM in [8] and 6 nM in [9].

B4: TTGGATGGA (dsDNA)
DNA 1: TTGGATGGA
DNA 2: TCCATCCAA
In the case of B4, the results for the Kd in series [10] and in [11] were 4.12 nM and 0.4 nM, respectively.

B5: AAGGTAGGT (dsDNA)
DNA 1: AAGGTAGGT
DNA 2: ACCTACCTT
Take B5: the values for the equilibrium dissociation constant (Kd) in series [12] and in series [13] were 0.457 nM and 2.75 nM, respectively.

B6: GGGGAGGAT (dsDNA)
DNA 1: GGGGAGGAT
DNA 2: ATCCTCCCC
With B6, the equilibrium dissociation constant (Kd) came out at 3 nM in series [14], 2 nM in [15] and 1 nM in series [16].

B7: GAGGTGTCA (dsDNA)
DNA 1: GAGGTGTCA
DNA 2: TGACACCTC
Turning to B7, the Kd in series [17] is 0.027 nM; in series [18], 0.025 nM.

B8: CTGTTGGCT (dsDNA)
DNA 1: CTGTTGGCT
DNA 2: AGCCAACAG
As to B8, the Kd in series [19] is 12.3 nM; in series [20], 1.52 nM.

B9: CAGGGTGGC (dsDNA)
DNA 1: CAGGGTGGC
DNA 2: GCCACCCTG
Consider B9, for which the values for the Kd in series [21] and in series [22] were 6.1 nM and 4.1 nM, respectively.

B10: TCGGTCGCC (dsDNA)
DNA 1: TCGGTCGCC
DNA 2: GGCGACCGA
In the case of B10, the affinity in series [23], expressed as Kd, was 74.1 nM.

B11: GTGGTGATA (dsDNA)
DNA 1: GTGGTGATA
DNA 2: TATCACCAC
B11: the Kd in [24] was found to be 20.6 nM; in series [25] it was 24.1 nM.

B12: GTGGTAGGA (dsDNA)
DNA 1: GTGGTAGGA
DNA 2: TCCTACCAC
B12: the Kd in [26] came out at 0.152 nM.

B13: GAGTGTGTG (dsDNA)
DNA 1: GAGTGTGTG
DNA 2: CACACACTC
Take B13: the figures for the Kd in series [27] and in [28] were 1.5 nM and 1.8 nM, respectively.

B14: GCATGGGAA (dsDNA)
DNA 1: GCATGGGAA
DNA 2: TTCCCATGC
As to B14, the dissociation constant Kd is 0.326 nM in series [29] and 0.306 nM in series [30].

B15: AAGTTGGTT (dsDNA)
DNA 1: AAGTTGGTT
DNA 2: AACCAACTT
Take B15: the figures for the dissociation constant (Kd) in series [31] and in series [32] were 0.077 nM and 0.21 nM, respectively.

B16: GTGGCACTG (dsDNA)
DNA 1: GTGGCACTG
DNA 2: CAGTGCCAC
With B16, binding in [33] was put at a Kd of 0.915 nM.

B17: GAAGAGGGG (dsDNA)
DNA 1: GAAGAGGGG
DNA 2: CCCCTCTTC
The molecule B17 showed a Kd in series [34] of 0.421 nM.
